According to US20230250154A1 (CYTONICS, published 2023):

T1: Cathepsin G (UniProt P08311 21-244)
T1 sequence (looked up): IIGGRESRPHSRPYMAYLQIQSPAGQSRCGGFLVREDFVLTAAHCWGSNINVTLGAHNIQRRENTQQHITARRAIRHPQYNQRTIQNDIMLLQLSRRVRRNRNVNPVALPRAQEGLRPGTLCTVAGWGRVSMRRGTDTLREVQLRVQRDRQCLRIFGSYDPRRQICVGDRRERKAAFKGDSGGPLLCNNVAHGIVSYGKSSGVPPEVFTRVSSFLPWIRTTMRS

B1: Variant A2M, bait region SEQ ID NO 137 (other)
chain: SVSGKPQYMVLVPSLLHTETTEKGCVLLSYLNETVTVSASLESVRGNRSLFTDLEAENDVLHCVAFAVPKSSSNEEVMFLTVQVKGPTQEFKKRTTVMVKNEDSLVFVQTDKSIYKPGQTVKFRVVSMDENFHPLNELIPLVYIQDPKGNRIAQWQSFQLEGGLKQFSFPLSSEPFQGSYKVVVQKKSGGRTEHPFTVEEFVLPKFEVQVTVPKIITILEEEMNVSVCGLYTYGKPVPGHVTVSICRKYSDASDCHGEDSQAFCEKFSGQLNSHGCFYQQVKTKVFQLKRKEYEMKLHTEAQIQEEGTVVELTGRQSSEITRTITKLSFVKVDSHFRQGIPFFGQVRLVDGKGVPIPNKVIFIRGNEANYYSNATTDEHGLVQFSINTTNVMGTSLTVRVNYKDRSPCYGYQWVSEEHEEAHHTAYLVFSPSKSFVHLEPMSHELPCGHTQTVQAHYILNGGTLLGLKKLSFYYLIMAKGGIVRTGTHGLLVKQEDMKGHFSISIPVKSDIAPVARLLIYAVLPTGDVIGDSAKYDVENCLANKVDLSFSPSQSLPASHAHLRVTAAPQSVCALRAVDQSVLLMKPDAELSASSVYNLLPEKDLTGFPGPLNDQDDEDCINRHNVYINGITYTPVSSTNEKDMYSFLEDMGLKAFTNSKIRKPKMCPQLEQYEMHGPSEDLVVQIKEEEGLGSIPENFFGVSELEGRGSVEEPHTKLRKYFPETWIWDLVVVNSAGVAEVGVTVPDTITEWKAGAFCLSEDAGLGISSTASLRAFQPFFVELTMPYSVIRGEAFTLKATVLNYLPKCIRVSVQLEASPAFLAVPVEKEQAPHCICANGRQTVSWAVTPKSLGNVNFTVSAEALESQELCGTEVPSVPEHGRKDTVIKPLLVEPEGLEKETTFNSLLCPSGGEVSEELSLKLPPNVVEESARASVSVLGDILGSAMQNTQNLLQMPYGCGEQNMVLFAPNIYVLDYLNETQQLTPEIKSKAIGYLNTGYQRQLNYKHYDGSYSTFGERYGRNQGNTWLTAFVLKTFAQARAYIFIDEAHITQALIWLSQRQKDNGCFRSSGSLLNNAIKGGVEDEVTLSAYITIALLEIPLTVTHPVVRNALFCLESAWKTAQEGDHGSHVYTKALLAYAFALAGNQDKRKEVLKSLNEEAVKKDNSVHWERPQKPKAPVGHFYEPQAPSAEVEMTSYVLLAYLTAQPAPTSEDLTSATNIVKWITKQQNAQGGFSSTQDTVVALHALSKYGAATFTRTGKAAQVTIQSSGTFSSKFQVDNNNRLLLQQVSLPELPGEYSMKVTGEGCVYLQTSLKYNILPEKEEFPFALGVQTLPQTCDEPKAHTSFQISLSVSYTGSRSASNMAIVDVKMVSGFIPLKPTVKMLERSNHVSRTEVSSNHVLIYLDKVSNQTLSLFFTVLQDVPVRDLKPAIVKVYDYYETDEFAIAEYNAPCSKDLGNADYKDDDDKGASHHHHHH
B2: Variant A2M, bait region SEQ ID NO 143 (other)
chain: SVSGKPQYMVLVPSLLHTETTEKGCVLLSYLNETVTVSASLESVRGNRSLFTDLEAENDVLHCVAFAVPKSSSNEEVMFLTVQVKGPTQEFKKRTTVMVKNEDSLVFVQTDKSIYKPGQTVKFRVVSMDENFHPLNELIPLVYIQDPKGNRIAQWQSFQLEGGLKQFSFPLSSEPFQGSYKVVVQKKSGGRTEHPFTVEEFVLPKFEVQVTVPKIITILEEEMNVSVCGLYTYGKPVPGHVTVSICRKYSDASDCHGEDSQAFCEKFSGQLNSHGCFYQQVKTKVFQLKRKEYEMKLHTEAQIQEEGTVVELTGRQSSEITRTITKLSFVKVDSHFRQGIPFFGQVRLVDGKGVPIPNKVIFIRGNEANYYSNATTDEHGLVQFSINTTNVMGTSLTVRVNYKDRSPCYGYQWVSEEHEEAHHTAYLVFSPSKSFVHLEPMSHELPCGHTQTVQAHYILNGGTLLGLKKLSFYYLIMAKGGIVRTGTHGLLVKQEDMKGHFSISIPVKSDIAPVARLLIYAVLPTGDVIGDSAKYDVENCLANKVDLSFSPSQSLPASHAHLRVTAAPQSVCALRAVDQSVLLMKPDAELSASSVYNLLPEKDLTGFPGPLNDQDDEDCINRHNVYINGITYTPVSSTNEKDMYSFLEDMGLKAFTNSKIRKPKMCPQLEQYEMHGPIPENFFGVSEDLVVQIEGEGEGEGEAIPMSIPTEPHTKLRKYFPETWIWDLVVVNSAGVAEVGVTVPDTITEWKAGAFCLSEDAGLGISSTASLRAFQPFFVELTMPYSVIRGEAFTLKATVLNYLPKCIRVSVQLEASPAFLAVPVEKEQAPHCICANGRQTVSWAVTPKSLGNVNFTVSAEALESQELCGTEVPSVPEHGRKDTVIKPLLVEPEGLEKETTFNSLLCPSGGEVSEELSLKLPPNVVEESARASVSVLGDILGSAMQNTQNLLQMPYGCGEQNMVLFAPNIYVLDYLNETQQLTPEIKSKAIGYLNTGYQRQLNYKHYDGSYSTFGERYGRNQGNTWLTAFVLKTFAQARAYIFIDEAHITQALIWLSQRQKDNGCFRSSGSLLNNAIKGGVEDEVTLSAYITIALLEIPLTVTHPVVRNALFCLESAWKTAQEGDHGSHVYTKALLAYAFALAGNQDKRKEVLKSLNEEAVKKDNSVHWERPQKPKAPVGHFYEPQAPSAEVEMTSYVLLAYLTAQPAPTSEDLTSATNIVKWITKQQNAQGGFSSTQDTVVALHALSKYGAATFTRTGKAAQVTIQSSGTFSSKFQVDNNNRLLLQQVSLPELPGEYSMKVTGEGCVYLQTSLKYNILPEKEEFPFALGVQTLPQTCDEPKAHTSFQISLSVSYTGSRSASNMAIVDVKMVSGFIPLKPTVKMLERSNHVSRTEVSSNHVLIYLDKVSNQTLSLFFTVLQDVPVRDLKPAIVKVYDYYETDEFAIAEYNAPCSKDLGNADYKDDDDKGASHHHHHH
B3: Variant A2M, bait region SEQ ID NO 141 (other)
chain: SVSGKPQYMVLVPSLLHTETTEKGCVLLSYLNETVTVSASLESVRGNRSLFTDLEAENDVLHCVAFAVPKSSSNEEVMFLTVQVKGPTQEFKKRTTVMVKNEDSLVFVQTDKSIYKPGQTVKFRVVSMDENFHPLNELIPLVYIQDPKGNRIAQWQSFQLEGGLKQFSFPLSSEPFQGSYKVVVQKKSGGRTEHPFTVEEFVLPKFEVQVTVPKIITILEEEMNVSVCGLYTYGKPVPGHVTVSICRKYSDASDCHGEDSQAFCEKFSGQLNSHGCFYQQVKTKVFQLKRKEYEMKLHTEAQIQEEGTVVELTGRQSSEITRTITKLSFVKVDSHFRQGIPFFGQVRLVDGKGVPIPNKVIFIRGNEANYYSNATTDEHGLVQFSINTTNVMGTSLTVRVNYKDRSPCYGYQWVSEEHEEAHHTAYLVFSPSKSFVHLEPMSHELPCGHTQTVQAHYILNGGTLLGLKKLSFYYLIMAKGGIVRTGTHGLLVKQEDMKGHFSISIPVKSDIAPVARLLIYAVLPTGDVIGDSAKYDVENCLANKVDLSFSPSQSLPASHAHLRVTAAPQSVCALRAVDQSVLLMKPDAELSASSVYNLLPEKDLTGFPGPLNDQDDEDCINRHNVYINGITYTPVSSTNEKDMYSFLEDMGLKAFTNSKIRKPKMCPQLEQYEMHGPEAIPMSIPTSELEGRGSIPENFFGVEGEGEGEGEPHTKLRKYFPETWIWDLVVVNSAGVAEVGVTVPDTITEWKAGAFCLSEDAGLGISSTASLRAFQPFFVELTMPYSVIRGEAFTLKATVLNYLPKCIRVSVQLEASPAFLAVPVEKEQAPHCICANGRQTVSWAVTPKSLGNVNFTVSAEALESQELCGTEVPSVPEHGRKDTVIKPLLVEPEGLEKETTFNSLLCPSGGEVSEELSLKLPPNVVEESARASVSVLGDILGSAMQNTQNLLQMPYGCGEQNMVLFAPNIYVLDYLNETQQLTPEIKSKAIGYLNTGYQRQLNYKHYDGSYSTFGERYGRNQGNTWLTAFVLKTFAQARAYIFIDEAHITQALIWLSQRQKDNGCFRSSGSLLNNAIKGGVEDEVTLSAYITIALLEIPLTVTHPVVRNALFCLESAWKTAQEGDHGSHVYTKALLAYAFALAGNQDKRKEVLKSLNEEAVKKDNSVHWERPQKPKAPVGHFYEPQAPSAEVEMTSYVLLAYLTAQPAPTSEDLTSATNIVKWITKQQNAQGGFSSTQDTVVALHALSKYGAATFTRTGKAAQVTIQSSGTFSSKFQVDNNNRLLLQQVSLPELPGEYSMKVTGEGCVYLQTSLKYNILPEKEEFPFALGVQTLPQTCDEPKAHTSFQISLSVSYTGSRSASNMAIVDVKMVSGFIPLKPTVKMLERSNHVSRTEVSSNHVLIYLDKVSNQTLSLFFTVLQDVPVRDLKPAIVKVYDYYETDEFAIAEYNAPCSKDLGNADYKDDDDKGASHHHHHH

How the values were obtained:
[1] = target: T1, Cathepsin G; test: cell-based or functional assay
[2] = target: Elastase; test: cell-based or functional assay

Row | Binder | Protease Inhibition (% of WT) [1] | Protease Inhibition (% of WT) [2]
1 | B1 | 450 % of WT | 100 % of WT
2 | B2 | 350 % of WT | 250 % of WT
3 | B3 | 100 % of WT | 75 % of WT
